Here are results for two molecules from article PMC3170326, “AKAP12 and AKAP5 form higher-order hetero-oligomers” (Journal of Molecular Signaling, 2011).

The target in assay [1] is His-tagged AKAP12 (purified, used for steric-exclusion chromatography) (human) (UniProt Q02952). Briefly: SEC; purified His-tagged AKAP5 or AKAP12 alone on HiPrep Sephacryl S-400 HR 16/60, PBS with 0.01% NaN3; fractions analysed by SDS-PAGE and immunoblot; homo-oligomer size from elution position. Background: In gel filtration, larger molecules generally elute earlier.
Assay [2] deals with T1, HA-tagged full-length AKAP5 (human, UniProt P24588 1-427).
T1 construct: AKAP5 (AKAP79), human, full length; pCMV-HA vector; also called HA-AKAP5; source: A431 cells, transiently transfected, in lysate
Kind of assay: co-IP; anti-HA immunoprecipitation from whole-cell lysates of A431 cells co-expressing an HA-tagged and a GFP-tagged AKAP; cells untreated, treated with 10 uM isoproterenol for 10-30 min, or washed free of agonist for 2 h; immunoblot. As to conditions: partners not purified. On the technique in general: A western blot detects proteins with antibodies after separation by electrophoresis.

T1 sequence (P24588 whole entry): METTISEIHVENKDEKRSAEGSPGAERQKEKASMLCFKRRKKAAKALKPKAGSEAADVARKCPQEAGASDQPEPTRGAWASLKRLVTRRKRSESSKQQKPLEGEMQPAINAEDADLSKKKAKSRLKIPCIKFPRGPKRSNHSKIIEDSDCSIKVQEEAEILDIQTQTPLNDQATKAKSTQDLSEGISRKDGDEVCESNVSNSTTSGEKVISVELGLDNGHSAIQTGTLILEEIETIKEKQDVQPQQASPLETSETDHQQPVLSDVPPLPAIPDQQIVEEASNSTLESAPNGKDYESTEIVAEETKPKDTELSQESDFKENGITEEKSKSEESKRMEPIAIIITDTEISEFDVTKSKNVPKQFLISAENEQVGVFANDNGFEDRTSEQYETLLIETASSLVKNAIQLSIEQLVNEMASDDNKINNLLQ

As to “His-tagged AKAP12 (purified, used for steric-exclusion chromatography) (from UniProt Q02952 1-1782) (natural protein)”, the stoichiometry N in assay [1] is 4.

B1: GFP-tagged AKAP12 (natural protein, human, UniProt Q02952 1-1782, looked up)
chain: MGAGSSTEQRSPEQPPEGSSTPAEPEPSGGGPSAEAAPDTTADPAIAASDPATKLLQKNGQLSTINGVAEQDELSLQEGDLNGQKGALNGQGALNSQEEEEVIVTEVGQRDSEDVSKRDSDKEMATKSAVVHDITDDGQEETPEIIEQIPSSESNLEELTQPTESQANDIGFKKVFKFVGFKFTVKKDKTEKPDTVQLLTVKKDEGEGAAGAGDHKDPSLGAGEAASKESEPKQSTEKPEETLKREQSHAEISPPAESGQAVEECKEEGEEKQEKEPSKSAESPTSPVTSETGSTFKKFFTQGWAGWRKKTSFRKPKEDEVEASEKKKEQEPEKVDTEEDGKAEVASEKLTASEQAHPQEPAESAHEPRLSAEYEKVELPSEEQVSGSQGPSEEKPAPLATEVFDEKIEVHQEEVVAEVHVSTVEERTEEQKTEVEETAGSVPAEELVEMDAEPQEAEPAKELVKLKETCVSGEDPTQGADLSPDEKVLSKPPEGVVSEVEMLSSQERMKVQGSPLKKLFTSTGLKKLSGKKQKGKRGGGDEESGEHTQVPADSPDSQEEQKGESSASSPEEPEEITCLEKGLAEVQQDGEAEEGATSDGEKKREGVTPWASFKKMVTPKKRVRRPSESDKEDELDKVKSATLSSTESTASEMQEEMKGSVEEPKPEEPKRKVDTSVSWEALICVGSSKKRARRGSSSDEEGGPKAMGGDHQKADEAGKDKETGTDGILAGSQEHDPGQGSSSPEQAGSPTEGEGVSTWESFKRLVTPRKKSKSKLEEKSEDSIAGSGVEHSTPDTEPGKEESWVSIKKFIPGRRKKRPDGKQEQAPVEDAGPTGANEDDSDVPAVVPLSEYDAVEREKMEAQQAQKSAEQPEQKAATEVSKELSESQVHMMAAAVADGTRAATIIEERSPSWISASVTEPLEQVEAEAALLTEEVLEREVIAEEEPPTVTEPLPENREARGDTVVSEAELTPEAVTAAETAGPLGAEEGTEASAAEETTEMVSAVSQLTDSPDTTEEATPVQEVEGGVPDIEEQERRTQEVLQAVAEKVKEESQLPGTGGPEDVLQPVQRAEAERPEEQAEASGLKKETDVVLKVDAQEAKTEPFTQGKVVGQTTPESFEKAPQVTESIESSELVTTCQAETLAGVKSQEMVMEQAIPPDSVETPTDSETDGSTPVADFDAPGTTQKDEIVEIHEENEVASGTQSGGTEAEAVPAQKERPPAPSSFVFQEETKEQSKMEDTLEHTDKEVSVETVSILSKTEGTQEADQYADEKTKDVPFFEGLEGSIDTGITVSREKVTEVALKGEGTEEAECKKDDALELQSHAKSPPSPVEREMVVQVEREKTEAEPTHVNEEKLEHETAVTVSEEVSKQLLQTVNVPIIDGAKEVSSLEGSPPPCLGQEEAVCTKIQVQSSEASFTLTAAAEEEKVLGETANILETGETLEPAGAHLVLEEKSSEKNEDFAAHPGEDAVPTGPDCQAKSTPVIVSATTKKGLSSDLEGEKTTSLKWKSDEVDEQVACQEVKVSVAIEDLEPENGILELETKSSKLVQNIIQTAVDQFVRTEETATEMLTSELQTQAHVIKADSQDAGQETEKEGEEPQASAQDETPITSAKEESESTAVGQAHSDISKDMSEASEKTMTVEVEGSTVNDQQLEEVVLPSEEEGGGAGTKSVPEDDGHALLAERIEKSLVEPKEDEKGDDVDDPENQNSALADTDASGGLTKESPDTNGPKQKEKEDAQEVELQEGKVHSESDKAITPQAQEELQKQERESAKSELTES
notes: AKAP12 (gravin), human, full length; also called AKAP12-GFP; full-length AKAP12; source: A431 cells, stably expressing, in lysate
Turning to B1, the “fold increase of AKAP12 co-precipitated with AKAP5 after 30 min isoproterenol, over unstimulated cells” value in assay [2] came to 4 fold.

Broadly, the stoichiometry N is the number of molecules, sites or subunits per partner or assembly.
